Test results taken from PMC3336217, “^111In-Labeled Cystine-Knot Peptides Based on the Agouti-Related Protein for Targeting Tumor Angiogenesis” (Journal of Biomedicine and Biotechnology, 2012).
Positions of bridges follow the written chain, without caps; N, C: chain ends. Residues, ends and D or L forms follow the SMILES beside them. *: point of attachment. DOTA = O=C(O)CN1CCN(CC(=O)O)CCN(CC(=O)*)CCN(CC(=O)O)CC1

Assays:
[1] = test system: nude mice bearing subcutaneous U87MG human glioblastoma xenografts; assay: in vivo; conditions: female, athymic nu/nu, mouse, iv, 2 h
Protocol: (§1) All animal studies were carried out in compliance with federal and local institutional rules for animal experimentation. Approximately, 10^7 U87MG cells were suspended in PBS and subcutaneously implanted in the left shoulders of female athymic nu/nu mice. Tumors were allowed to grow to a size of 0.5 cm (2-3 weeks) before imaging experiments were performed. For biodistribution studies, U87MG tumor-bearing mice (n = 3 for each group) were injected with ^111In-DOTA-AgRP-7C (0.259–0.37 MBq, […]) or ^111In-DOTA-AgRP-6E (0.296–0.444 MBq, 8–12 μCi) via the tail vein and sacrificed at different time points (0.5, 2, 24, and 48 h) after injection (p.i.). Tumor and normal tissues of interest were removed and weighed, and their radioactivity was measured with a γ-counter. Radioactivity uptake was expressed as the percent injected dose per gram of tissue (%ID/g). To test the in vivo αvβ3 integrin targeting specificity of the probe, U87MG tumor-bearing mice (n = 3 for each group) were injected via the tail vein with a mixture of ^111In-DOTA-AgRP-7C (0.259–0.37 MBq, 7–10 μCi) and 330 μg of c(RGDyK). The mice were sacrificed at 2 h p.i. and the biodistribution of the radiolabeled peptide was measured as above.
(§2) Quantitative data were expressed as mean ± SD. Means were compared using the Student t-test. A 95% confidence level was chosen to determine the significance between groups, with P values of less than 0.05 indicating significant differences.

in vivo = conditions: female, athymic nu/nu, mouse, iv, total radioactivity
Protocol: as §1, §2

in vitro = in vitro ADME; conditions: mouse, serum
Protocol: Radiolabeled AgRP* peptides were incubated in 0.01 M PBS (pH 7.4) at 37°C for 24 h and monitored for degradation by HPLC. Stability was also tested by incubating 0.74 MBq (20 μCi) ^111In-DOTA-AgRP-7C or ^111In-DOTA-AgRP-6E in 400 μL of mouse serum at 37°C for 2 h. Afterward, the mixture was re-suspended in 0.5 mL of DMF containing 5 μL of Triton X-100 and centrifuged at 16,000 g for 2 min. The supernatant, which contained >95% of the starting radioactivity, was filtered using a 10 K NanoSep device (Pall Corporation, East Hills, NY, USA). Greater than 99% of the radioactive material passed through this filter. The samples were analyzed by radio-HPLC, and the percentage of intact peptide was determined by quantifying peaks corresponding to the intact peptide and to the degradation products.
Figure 1 Stability analysis of ^111In-DOTA-AgRP-7C (a) and (b), and ^111In-DOTA-AgRP-6E (c) and (d) in PBS and mouse serum. The two radiopeptides were incubated with PBS for 24 h at […], and mouse serum for 2 h at 37°C.

## CC(C)C[C@@H]1NC(=O)[C@@H]2CSSC[C@@H]3NC(=O)[C@H]([C@@H](C)O)NC(=O)[C@H](C)NC(=O)[C@H](C)NC(=O)[C@@H]4CCCN4C(=O)[C@H](CC(=O)O)NC(=O)[C@H](CSSC[C@H](NC(=O)CNC(=O)CN4CCN(CC(=O)O)CCN(CC(=O)O)CCN(CC(=O)O)CC4)C(=O)N[C@@H](C(C)C)C(=O)N[C@@H](CCCNC(=N)N)C(=O)N[C@@H](CC(C)C)C(=O)N[C@@H](Cc4c[nH]cn4)C(=O)N[C@@H](CCC(=O)O)C(=O)N[C@@H](CO)C(=O)N2)NC(=O)[C@H](CSSC[C@@H](C(=O)N[C@@H](CCCNC(=N)N)C(=O)O)NC(=O)[C@H](Cc2ccc(O)cc2)NC(=O)[C@@H]2CSSC[C@H](NC(=O)[C@H](Cc4ccc(O)cc4)NC3=O)C(=O)N[C@@H](Cc3ccc(O)cc3)C(=O)NCC(=O)N[C@@H](CCCNC(=N)N)C(=O)NCC(=O)N[C@@H](CC(=O)O)C(=O)N[C@@H](CC(N)=O)C(=O)N[C@@H](CC(=O)O)C(=O)N[C@@H](CC(C)C)C(=O)N[C@@H](CCCNC(=N)N)C(=O)N2)NC(=O)[C@@H]2CCCN2C(=O)[C@H](C(C)C)NC(=O)[C@H](CCC(N)=O)NC(=O)[C@H](CCC(N)=O)NC(=O)CNC1=O [111In-DOTA-AgRP-7C, metal not drawn] ({DOTA}-GCVRLHESCLGQQVPCCDPAATCYCYGRGDNDLRCYCR-OH; disulfide 2-17, 9-23, 16-37, 25-35)
[1]
  Intestine uptake: 0.60 ± 0.13 %ID/g
  Liver uptake: 0.43 ± 0.16 %ID/g
  Lung uptake: 0.86 ± 0.20 %ID/g
  Spleen uptake: 0.88 ± 0.21 %ID/g
  Tumor uptake: 2.35 ± 0.36 %ID/g
  Tumor-to-muscle ratio: 39.83 ± 9.16
In vivo; Blood uptake
  tissue uptake at 0.5 h: 0.68 ± 0.26 %ID/g
  tissue uptake at 2 h: 0.1 ± 0.02 %ID/g
  tissue uptake at 24 h: 0.01 %ID/g
  tissue uptake at 48 h: 0.01 %ID/g
In vivo; Bone uptake
  tissue uptake at 0.5 h: 1.41 ± 0.36 %ID/g
  tissue uptake at 2 h: 0.63 ± 0.05 %ID/g
  tissue uptake at 24 h: 0.39 ± 0.07 %ID/g
  tissue uptake at 48 h: 0.24 ± 0.05 %ID/g
In vivo; Brain uptake
  tissue uptake at 0.5 h: 0.04 ± 0.02 %ID/g
  tissue uptake at 2 h: 0.02 ± 0.01 %ID/g
  tissue uptake at 24 h: 0.01 %ID/g
  tissue uptake at 48 h: 0.01 ± 0.01 %ID/g
In vivo; Heart uptake
  tissue uptake at 0.5 h: 0.45 ± 0.16 %ID/g
  tissue uptake at 2 h: 0.12 ± 0.02 %ID/g
  tissue uptake at 24 h: 0.04 ± 0.01 %ID/g
  tissue uptake at 48 h: 0.03 %ID/g
In vivo; Intestine uptake
  tissue uptake at 0.5 h: 2.02 ± 0.71 %ID/g
  tissue uptake at 24 h: 0.29 ± 0.02 %ID/g
  tissue uptake at 48 h: 0.22 ± 0.03 %ID/g
In vivo; Kidneys uptake
  tissue uptake at 0.5 h: 33.9 ± 8.35 %ID/g
  tissue uptake at 2 h: 30.6 ± 4.62 %ID/g
  tissue uptake at 24 h: 19.1 ± 2.17 %ID/g
  tissue uptake at 48 h: 8.47 ± 0.04 %ID/g
In vivo; Liver uptake
  tissue uptake at 0.5 h: 0.8 ± 0.19 %ID/g
  tissue uptake at 24 h: 0.24 ± 0.03 %ID/g
  tissue uptake at 48 h: 0.19 ± 0.03 %ID/g
In vivo; Lung uptake
  tissue uptake at 0.5 h: 2.11 ± 0.65 %ID/g
  tissue uptake at 24 h: 0.26 ± 0.09 %ID/g
  tissue uptake at 48 h: 0.12 ± 0.02 %ID/g
In vivo; Muscle uptake
  tissue uptake at 0.5 h: 0.3 ± 0.13 %ID/g
  tissue uptake at 2 h: 0.06 ± 0.01 %ID/g
  tissue uptake at 24 h: 0.04 ± 0.01 %ID/g
  tissue uptake at 48 h: 0.02 ± 0.01 %ID/g
In vivo; Pancreas uptake
  tissue uptake at 0.5 h: 0.42 ± 0.17 %ID/g
  tissue uptake at 2 h: 0.13 ± 0.03 %ID/g
  tissue uptake at 24 h: 0.09 ± 0.01 %ID/g
  tissue uptake at 48 h: 0.05 ± 0.01 %ID/g
In vivo; Spleen uptake
  tissue uptake at 0.5 h: 1.7 ± 0.62 %ID/g
  tissue uptake at 24 h: 0.58 ± 0.09 %ID/g
  tissue uptake at 48 h: 0.46 ± 0.1 %ID/g
In vivo; Stomach uptake
  tissue uptake at 0.5 h: 2.17 ± 0.49 %ID/g
  tissue uptake at 24 h: 0.21 ± 0.01 %ID/g
  tissue uptake at 48 h: 0.14 ± 0.02 %ID/g
In vivo; Tumor uptake
  tissue uptake at 0.5 h: 5.74 ± 1.6 %ID/g
  tissue uptake at 24 h: 1.29 ± 0.02 %ID/g
  tissue uptake at 48 h: 0.76 ± 0.17 %ID/g
In vivo; Tumor-to-blood ratio
  tissue to tissue ratio at 0.5 h: 8.9 ± 3.09
  tissue to tissue ratio at 2 h: 25.8 ± 10.5
  tissue to tissue ratio at 24 h: 128 ± 30.5
  tissue to tissue ratio at 48 h: 144 ± 36.3
In vivo; Tumor-to-muscle ratio
  tissue to tissue ratio at 0.5 h: 20.6 ± 6.4
  tissue to tissue ratio at 24 h: 37.7 ± 9.81
  tissue to tissue ratio at 48 h: 41.1 ± 8.62
In vitro
  remaining at 2 h, 1.85 MBq/mL: > 95%
